Read-outs that look alike come from different tables or passages of the source. Bounds are passed on as bounds.

Test [1] has as its target purified preparation of the V3 loop-BPs (P95/nucleolin, P40/PHAP II, P30/PHAP I) (human) (UniProt P19338). As to the kind of experiment: BIAcore, purified V3-BPs. A general note: Surface plasmon resonance follows binding to a sensor surface in real time, without labels.
For test [2] the target is unchanged. The test can be described thus: BIAcore, V3 loop-BPs immobilized on CM5.
The target is the same in test [3]. As to the kind of experiment: BIAcore, V3-BPs; row shifted one column to the left.
Test [4] shares this target. The test can be described thus: inhibition of gp120 binding to the V3 loop-BPs; competitor gp120.
Test [5] addresses P95/nucleolin (human) (UniProt P19338). As to the kind of experiment: cell-based or functional assay.
Test [6] shares this target. The test can be described thus: competition: 50 µM unlabeled 5[KPR]-TASP against 5 µM biotin-labeled 5[Kψ(CH2N)PR]-TASP on CEM cells.
Test [7] has the same target. As to the kind of experiment: FACS on CEM cells with biotin-labeled construct; target printed as TASP-ligand.
The target in test [8] is CD26 (on MOLT4 cells) (human) (UniProt P27487). The test can be described thus: FACS on MOLT4 cells after pronase E.
For test [9] the target is unchanged. As to the kind of experiment: FACS on MOLT4 cells after proteinase K.
For test [10] the target is unchanged. As to the kind of experiment: FACS on MOLT4 cells, no protease.
The target is the same in test [11]. As to the kind of experiment: FACS on MOLT4 cells after trypsin.
In test [12] the target is purified preparation of the V3 loop-BPs (P95/nucleolin, P40/PHAP II, P30/PHAP I) (human) (UniProt P19338).
Test [13] has as its target P95/nucleolin (human) (UniProt P19338). The test can be described thus: FACS on MOLT4 cells after proteinase K; target TASP-Ligand [sic].
Test [14] has as its target purified preparation of the V3 loop-BPs (P95/nucleolin, P40/PHAP II, P30/PHAP I) (human) (UniProt P19338). As to the kind of experiment: BIAcore, V3-BPs.
For test [15], the target named is P95/nucleolin (human) (UniProt P19338). The test can be described thus: saturation of the binding sites, method not stated.
A further test concerns the target P40/PHAP II (human) (UniProt Q01105). The test can be described thus: saturation of the binding sites, method not stated.
The target in the next test is P30/PHAP I (human) (UniProt P39687). As to the kind of experiment: saturation of the binding sites, method not stated.
For test [16], the target named is P95/nucleolin (human) (UniProt P19338). As to the kind of experiment: FACS on MOLT4 cells, no protease; target TASP-Ligand [sic].
The target is the same in test [17]. As to the kind of experiment: FACS on MOLT4 cells after pronase E; target TASP-Ligand [sic].
The target is the same in test [18]. As to the kind of experiment: FACS on MOLT4 cells after trypsin; target TASP-Ligand [sic].
Another test has as its target recombinant soluble CD4 (UniProt P01730). The test can be described thus: BIAcore, soluble CD4; row shifted one column to the left.
The target of test [19] is purified preparation of the V3 loop-BPs (P95/nucleolin, P40/PHAP II, P30/PHAP I) (human) (UniProt P19338). As to the kind of experiment: BIAcore, V3 loop-BPs.
Test [20] addresses recombinant gp120 of HIV-1 Lai (IIIB) (HIV-1 Lai (IIIB)) (UniProt P03377). As to the kind of experiment: cell-based or functional assay.
Test [21] concerns the target CD4 (cellular, CEM and MOLT4 cells) (human) (UniProt P01730). The test can be described thus: FACS on MOLT4 cells after pronase E.
Test [22] shares this target. As to the kind of experiment: FACS on MOLT4 cells after proteinase K.
For test [23] the target is unchanged. The test can be described thus: cell-based or functional assay.
For test [24] the target is unchanged. The test can be described thus: FACS on MOLT4 cells, no protease.
In test [25] the target is purified preparation of the V3 loop-BPs (P95/nucleolin, P40/PHAP II, P30/PHAP I) (human) (UniProt P19338). The source holds these as a separate data set.
The target of test [26] is CD4 (cellular, CEM and MOLT4 cells) (human) (UniProt P01730). As to the kind of experiment: FACS on MOLT4 cells after trypsin.

Sequence of P95/nucleolin (human) (P19338 2-710 limits assumed): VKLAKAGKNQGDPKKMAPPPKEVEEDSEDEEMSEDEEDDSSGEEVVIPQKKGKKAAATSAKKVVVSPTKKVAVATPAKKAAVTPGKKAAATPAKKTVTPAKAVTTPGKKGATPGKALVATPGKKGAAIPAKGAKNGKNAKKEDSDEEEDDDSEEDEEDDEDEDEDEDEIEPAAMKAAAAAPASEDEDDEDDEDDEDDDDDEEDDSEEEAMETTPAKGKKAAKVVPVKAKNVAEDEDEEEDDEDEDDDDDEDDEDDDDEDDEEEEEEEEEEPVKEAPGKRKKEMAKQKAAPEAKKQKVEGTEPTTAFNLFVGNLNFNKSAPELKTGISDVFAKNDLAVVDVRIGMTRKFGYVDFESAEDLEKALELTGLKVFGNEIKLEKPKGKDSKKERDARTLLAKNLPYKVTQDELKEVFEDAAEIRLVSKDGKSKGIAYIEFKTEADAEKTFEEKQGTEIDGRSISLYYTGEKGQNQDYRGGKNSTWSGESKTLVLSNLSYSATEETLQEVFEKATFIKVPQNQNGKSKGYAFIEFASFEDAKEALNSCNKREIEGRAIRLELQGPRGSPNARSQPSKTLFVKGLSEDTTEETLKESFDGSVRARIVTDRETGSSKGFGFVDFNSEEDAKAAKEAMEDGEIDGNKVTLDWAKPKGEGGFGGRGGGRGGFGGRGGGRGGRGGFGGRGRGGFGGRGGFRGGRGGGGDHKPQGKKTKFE
Sequence of P40/PHAP II (human) (Q01105 other isoform, or with tags, fused parts or gaps limits assumed): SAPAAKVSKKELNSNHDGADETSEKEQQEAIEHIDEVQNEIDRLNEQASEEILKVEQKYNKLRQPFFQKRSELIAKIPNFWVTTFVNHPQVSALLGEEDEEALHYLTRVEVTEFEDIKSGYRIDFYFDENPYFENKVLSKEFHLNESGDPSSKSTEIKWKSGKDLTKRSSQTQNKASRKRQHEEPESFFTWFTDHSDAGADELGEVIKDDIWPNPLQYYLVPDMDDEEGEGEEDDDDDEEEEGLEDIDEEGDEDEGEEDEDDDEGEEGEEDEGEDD

In turn, synthetic V3 loop peptide of HIV-1 Ba-L had a Ka in [1] of 1.5e+06 M⁻¹.

Usually koff stands for the first-order rate constant of dissociation. One may read the kon as the rate constant with which the complex forms. In test [2], “recombinant gp120 of HIV-1 MN (from UniProt P05877 32-513) (ligand)” showed a Ka of 4.3e+08 M⁻¹, a koff of 0.00044 s⁻¹ and a kon of 190000 M⁻¹ s⁻¹. Besides, in test [3], the Ka is 4.3e+08 M⁻¹, the off-rate (koff) stood at 0.00044 s⁻¹ and the association rate constant (kon) worked out at 190000 M⁻¹ s⁻¹.

A word on the IC50: it is the midpoint of a concentration-inhibition curve. Read a low IC50 as greater potency. One may read the EC50 as the midpoint of the concentration-response curve. In test [2], 5[KPR]-TASP (peptide) registered a Ka of 1.5e+08 M⁻¹, a koff of 0.0024 s⁻¹ and an on-rate constant (kon) of 350000 M⁻¹ s⁻¹. In addition, in test [3], the Ka stood at 1.5e+08 M⁻¹, the dissociation rate constant (koff) was 0.0024 s⁻¹ and the kon was determined as 350000 M⁻¹ s⁻¹. For the same substance, the 50% inhibitory concentration (IC50) in test [4] turned out to be 300 nM. The Inhibition of HIV infection (IC50), HIV-1 in CEM cells, p24 at 4 days in the test with P95/nucleolin (human) [5] is 5000 nM. The substance also showed a % of P95 recovery abolished with P95/nucleolin (human) [6] of 40 to 50%. Also, the EC50 with P95/nucleolin (human) [7] worked out at 3500 nM.

As to “5[Kψ(CH2N)PR]-TASP with dehydroxyproline in place of proline (peptide)”, in the test with P95/nucleolin (human) [5], the IC50 of HIV entry (β-galactosidase), HeLa P4, HIV-1 Lai was found to be 100 nM; the IC50 of HIV entry (β-galactosidase), HeLa P4-C5, HIV-1 89.6 was found to be 300 nM; the IC50 of HIV entry (β-galactosidase), HeLa P4-C5, HIV-1 Bal is 300 nM; the IC50 of HIV entry (β-galactosidase), HeLa P4-C5, HIV-1 JRCSF amounted to 300 nM. For the same substance, in the test with P95/nucleolin (human) [5], the IC50 of HIV entry (β-galactosidase), HeLa P4-C5, HIV-1 Lai was 100 nM; the IC50 of HIV entry (β-galactosidase), HeLa P4-C5, HIV-2 CBL turned out to be 2000 nM; the IC50 of HIV entry (β-galactosidase), HeLa P4-C5, HIV-2 ROD was determined as 200 nM.

As for mAb Ta1 (antibody), the % positive cells worked out at 97% in test [8], 98% in [9], 100% in test [10] and 100% in [11].

In the case of synthetic V3 loop peptide of HIV-1 Lai, in test [1], the Ka amounted to 5.1e+06 M⁻¹ and the fold affinity against the V3 loop of the macrophage-tropic isolate was greater than 3 fold.

On to “recombinant gp120 of HIV-1 Lai (IIIB) (from UniProt P03377 33-516) (ligand)”, for which, in test [2], the Ka was found to be 2.1e+08 M⁻¹, the koff was 0.0021 s⁻¹ and the kon was 440000 M⁻¹ s⁻¹. In test [3], the Ka was 2.1e+08 M⁻¹, the koff was determined as 0.0021 s⁻¹ and the on-rate constant (kon) amounted to 440000 M⁻¹ s⁻¹. In addition, in [12], the half-maximal inhibitory concentration (IC50) stood at 3 nM.

In test [2], “recombinant gp120 of HIV-1 SF2 (from UniProt P03378 32-509) (ligand)” had a Ka of 2.32e+09 M⁻¹, an off-rate constant (koff) of 2.8e-05 s⁻¹ and a kon of 65000 M⁻¹ s⁻¹. In [3], the Ka came out at 2.32e+09 M⁻¹, the koff came to 3e-05 s⁻¹ and the on-rate constant (kon) worked out at 65000 M⁻¹ s⁻¹.

Consider 5[Kψ(CH2N)PR]-TASP (peptide), for which the % positive cells in the test with P95/nucleolin (human) [13] was determined as 15%; with P95/nucleolin (human) [16], 100%; in the test with P95/nucleolin (human) [17], 8%; with P95/nucleolin (human) [18], 92%. For the same substance, the Ka in test [14] and in test [2] was 9.61e+09 M⁻¹ each time. The concentration giving 100% saturation of the binding sites was 2 µM with P95/nucleolin (human) [15], 4 µM with P40/PHAP II (human) and 8 µM with P30/PHAP I (human). The IC50 of HIV entry (β-galactosidase), HeLa P4, HIV-1 Lai with P95/nucleolin (human) [5] was determined as 500 nM. For the same substance, in the test with P95/nucleolin (human) [5], the IC50 of HIV entry (β-galactosidase), HeLa P4-C5, HIV-1 Bal turned out to be 800 nM. Further, the IC50 of HIV entry (β-galactosidase), HeLa P4-C5, HIV-1 UGO29A with P95/nucleolin (human) [5] stood at 300 nM. This substance displayed an IC50 of HIV entry (β-galactosidase), HeLa P4-C5, HIV-2 ROD with P95/nucleolin (human) [5] of 400 nM. The substance also showed an Inhibition of HIV infection (IC50), HIV-1 in CEM cells, p24 at 4 days in the test with P95/nucleolin (human) [5] of 500 nM. In the test with P95/nucleolin (human) [7], this substance yielded a concentration giving a half-maximal response (EC50) of 150 nM.

Consider “recombinant gp120 of HIV-1 Lai (IIIB) (from UniProt P03377 33-516) (ligand; other documents disagree on this pair)”, for which, in the test with recombinant soluble CD4, the Ka amounted to 1.08e+09 M⁻¹, the koff came to 0.0545 s⁻¹ and the kon worked out at 588000 M⁻¹ s⁻¹.

“nonglycosylated gp120 of HIV-1 SF2 (Env 2-3) (from UniProt P03378 32-509) (ligand)”: in [2], the Ka was 1.6e+08 M⁻¹, the off-rate (koff) stood at 0.0024 s⁻¹ and the association rate constant (kon) worked out at 380000 M⁻¹ s⁻¹. In addition, in test [3], the Ka amounted to 1.6e+08 M⁻¹, the koff turned out to be 0.0024 s⁻¹ and the association rate constant (kon) was 380000 M⁻¹ s⁻¹. Besides, the fold reduction of affinity against glycosylated gp120 SF2 in test [19] turned out to be 10 fold.

With “purified preparation of the V3 loop-BPs (P95/nucleolin, P40/PHAP II, P30/PHAP I) (from UniProt P19338 2-710; Q01105 2-277; P39687 1-249)”, in test [20], the inhibition of HIV-1 Lai infection of CEM cells, multiple cycles, p24 at 5 days, 10 µg/ml amounted to 91% and the inhibition of single cycle HIV-1 infection of CEM cells is greater than 80%.

Consider mAb OKT4A (antibody), for which the % positive cells came to 9% in test [21], 6% in [22], 100% in test [24] and 24% in test [26]. The substance also yielded an inhibition of binding of HIV-1 particles to CEM cells (p24 in cell lysates) in test [23] of 75%. The substance further displayed an ELISA OD 450 nm in test [25] of 0.2 OD 450 nm.

For the origin of these results see patent US20020076693A1, “Novel cell surface receptor for HIV retroviruses, therapeutic and diagnostic uses” (priority 1997, published 2002).
